This is an account of results in the DeepSol protein solubility set.

The data set can be described thus: soluble on expression in E. coli; label from the status in PepcDB or PDB records.
On to “MGHHHHHHSHRSQPVHILAVRRLQEEDQQFRTSSLPAIPNPFPELCGPGSPPVLTPGSLPPSQAAAKQDVKVFSEDGTSKVVEILADMTARDLCQLLVYKSHCVDDNSWTLVEHHPHLGLERCLEDHELVVQVESTMASESKFLFRKNYAKYEFF”, for which the “soluble on expression in E. coli” value is “not soluble”. Turning to “MAGSATVEKRLDFGLLGPLQMTIDGTPVPSGTPKQRAVLAMLVINRNRPVGVDALITALWEEWPPSGARASIHSYVSNLRKLLGGAGIDPRVVLAAAPPGYRLSIPDNTCDLGRFVAEKTAGVHAAAAGRFEQASRHLSAALREWRGPVLDDLRDFQFVEPFATALVEDKVLAHTAKAEAEIACGRASAVIAELEALTFEHPYREPLWTQLITAYYLSDRQSDALGAYRRVKTTLADDLGIDPGPTLRALNERILRQQPLDAKKSAKTTAAGTVTVLDQRTMASGQQAVAYLHDIASGRGYPLQAAATRIGRLHDNDIVLDSANVSRHHAVIVDTGTNYVINDLRSSNGVHVQHERIRSAVTLNDGDHIRICDHEFTFQISAGTHGGT”, the “soluble on expression in E. coli” value was “soluble”. “MPSGAEFTRDERQLNQHENPNDAMSDDNSHSSDTVNSKKGFFSLLLSQLFHGEPKNRDELLALIRDSGQNDLIDEDTRDMLEGVMDIADQRVRDIMIPRSQMITLKRNQTLDECLDVIIESAHSRFPVISEDKDHIEGILMAKDLLPFMRSDAEAFSMEKVLRPAVVVPESKRVDRMLKEFRSQRYHMAIVIDEFGGVSGLVTIEDILELIVGEIEDEYDEEEDIDFRQLSRHTWTVRALASIEDFNDAFDTHFSDEEVDTIGGLVMQAFGHLPARGESIDIDGYQFKVAMADSRRIIQVHVKLPDDAPQPKLEE”: the “soluble on expression in E. coli” value is “not soluble”. To “MEISGEEDKEEAVTLPKEVSKISISDGNKFVYQILNGPNEQCFENFRMDKPVFYKLCDLLQTRGLLRHTNRIKIEAQLAIFLFIIGHNLRTRAVQELFCYSGETISRHFNNVLNAVIAISKDFFQPNSNSDTLENDDPYFKDCVGVVDSFHIPVMVGVDEQGPFRNGNGLLTQNVLAASSFDLRFNYVLAGWEGSASDQQVLNAALTRRNKLQVPQGKYYIVDNKYPNLPGFIAPYHGVSTNSREEAKEMFNERHKLLHRAIHRTFGALKERFPILLSAPPYPLQTQVKLVIAACALHNYVRLEKPDDLVFRMFEEETLAEAGEDREVALEEEQVEIVGQEHGFRPEEVEDSLRLRDEIASELWNHYVQNMSTF” belongs “soluble”. To “TVTSASDQTTTFIQTISPTAIEISKTYDLYASVLLAQAILESSSGQSDLSKAPNYNLFGIKGEYKGKSVQMPTLEDDGKGNMTQIQAPFRAYPNYSASLYDYAELVSSQKYASVWKSNTSSYKDATAALTGLYATDTAYASKLNQIIETYSL” belongs “not soluble”; to “GMDDLTNLAARLRLLEDREEIRELIARYGPLADSGDAEALSELWVEDGEYAVVGFATAKGRAAIAALIDGQTHRALMADGCAHFLGPATVTVEGDTATARCHSVVFRCVSGTFGSHRVSANRWTFRRTPAGWRAVRRENALLDGSAAARALLQFR”, “soluble”; to “MAEDEPDAKSPKTGGRAPPGGAEAGEPTTLLQRLRGTISKAVQNKVEGILQDVQKFSDNDKLYLYLQLPSGPTTGDKSSEPSTLSNEEYMYAYRWIRNHLEEHTDTCLPKQSVYDAYRKYCESLACCRPLSTANFGKIIREIFPDIKARRLGGRGQSKYCYSGIRRKTLVSMPPLPGLDLKGSESPEMGPEVTPAPRDELVEAACALTCDWAERILKRSFSSIVEVARFLLQQHLISARSAHAHVLKAMGLAEEDEHAPRERSSKPKNGLENPEGGAHKKPERLAQPPKDLEARTGAGPLARGERKKSVVESSAPGANNLQVNALVARLPLLLPRAPRSLIPPIPVSPPILAPRLSSGALKVATLPLSSRAGAPPAAVPIINMILPTVPALPGPGPGPGRAPPGGLTQPRGTENREVGIGGDQGPHDKGVKRTAEVPVSEASGQAPPAKAAKQDIEDTASDAKRKRGRPRKKSGGSGERNSTPLKSAAAMESAQSSRLPWETWGSGGEGNSAGGAERPGPMGEAEKGAVLAQGQGDGTVSKGGRGPGSQHTKEAEDKIPLVPSKVSVIKGSRSQKEAFPLAKGEVDTAPQGNKDLKEHVLQSSLSQEHKDPKATPP”, “soluble”. To “MLDLTTNPIDLTRALVDIESPSHYEKNIADAIEQALHAIDNVEVLRHGNTLVARTHRGLGERVILAGHIDTVPIADNVPSHMEGDVMFGCGTVDMKSGMAVYLHAFATLANHPALAKDLTVVCYEGEEVASEYNGLGHVQAAHPDWLSGDLALLGEPSGAVIEAGCQGTIRLRVTAHGVRAHSARSWLGDNAMHKLAPVITNIAQYHAQEMLVDGCLYHEGLNIVHCESGVATNTIPDEAWMFVNFRFAPNRSVDEALAHMLEVLDLPEGVTYDIDDAVPGARPGLDRPAAAALLEATGGKFRAKYGWTDVSRFSEIGVPAVNFGPGDPAYCHKKDEQCPVSMITEVSRTLVHYLTSTNSQTTGA” belongs “not soluble”; to “MAHILLIPANSPFVVTGALSAKVSTVEEFAQKHRAFAIFNAGFFDPANQKSTSYVVVTGQMVADPKDNERLVNNPQLKPYLNLIFNRSEFRRYLCGQTTRYDITLHNESPPANCRLVDAIGAGPRLLPKLTSVPEGFVDNAKGRDALLSKQLNARTAVGITSEGSIILVMVAQKPSKPKNSGISLVQLADLMKKLGASAAMNLDGGSSSSLYYNGKAFYGKFDLQGNPIKRKVKSVLLVQENVRNLEHHHHHH”, “not soluble”; to “MGSDKIHHHHHHMRGGNIETMVAGTIKVVQMLPDLNEGGVEKGTLELGAFLTESGHQSIVISGGGRMVSQLESEGSRHLTWPHIGEKSPRCLNYFFPLRRFLLKEGVDIVHLRSRLPAWVAFLAWKSLPVKRRPVLITTFHGFYSVNFYSAIMTRGERIIAVSKTIADHIREAYDVAAERIVLIPRGLDEEQFNPENVTVERIRNLKERWGLNGNTDPVVMLPGRVTRLKGQDVFLQSLAGIKELPWKAIMVGESDATSEYTRILEKMVGDPDLRERVKFVGHCSDMPAAMTLADIVVSTSTKPESFGRTSVEAQAMRKPVIVSAHGGSLETVLDGKTGWHVKPGDSEALSACLRIALSDESVRKKMGVEGRKWVVSQFTVTKMCEKTVALYQELLLRKSSWSQI”, “not soluble”. Consider “MGSDKIHHHHHHMDLRDLTYFETIAELGHLGRAAEKLNRSQPALTKSIQRLEESFGTRLFQRDGRRIKLTPVGELLQARGKELQQSIAQTQREVRDFASGMVGNIRVGCAATMAEYLMPKLTSALLQRTPDVTFKLVIGQDDLLRESLRSGQLDMIICALAPDSDDVTSFAVLKDEAVVIASKHHPIFKTPLQMSDLCAYRWVLPPVSVSSRKWLDTTFAAHGLPLPTVQIEANSISLLPGLIAQSNLLSFVARESLEFGKTMQHLREVPLEQTTLKRTIGVTLRKGGYLSPAAEGMLQMLRDNGGDFLGWG”, for which the “soluble on expression in E. coli” value is given as “not soluble”. To “GMSGDSEVGTEAGLTLGGDGILRLTWPRGAAITAADAERAMLRVNQLCGDDRHPMLVDMATTADVSRGARAVFGRPCQASRIALLGSSPVDRVLANFFLGINAVPCPTKFFTSERDALTWLALT” belongs “soluble”; to “SLRSIMTPRGEISWVDAEQSEDEIRRQLLSSPHSLFPVCRGELDEIIGIVRAKEMLVALESGENVAALASASPAIVVPETLDPINLLGVLRRARGSFVIVTNEFGVVQGLVTPLDVLEAIAGEFPDADETPEIVIDGDGWLIKGSTDLHALQQALGLDPLINDDEDIATVAGLVISANGHIPRIGDVVSLPPLHFTVVEANDYRV”, “soluble”; to “QLTRERLTATSRYKLSSSDTFRVIGNPEPREGKLRMQVQLTGGSSPSYILYIRHEGEYEPVARGDMLKLRKFYARSVEEWEQKAPAMGRYMAGKGLSGSLHAKTGDVEILSTAKGPFSLRQKALDLSDRLAATLYELSPSLLSDSRRAMLEAMCLGREGEAPDVRRKFVAAGVAH”, “not soluble”. Turning to “DDSCQIGTSFTGLDMTKYVGTWYELFRTPNSDEEDFTNCEYDKYTLDENGVIQVTSVAYTNSIRGFITSTGTVPSWTEDTFDIAYGDDETWSSTYFMVGTDYQTYSIVAGCLDNDYSRHLYWIASHETSFDDATKAKVNEVLAPYNLSLDDMEPVDQSYCVQY”, the “soluble on expression in E. coli” value is recorded as “soluble”. Turning to “MAHHHHHHMVMSQRIAYVTGGMGGIGTSICQRLHKDGFRVVAGCGPNSPRRVKWLEDQKALGFDFYASEGNVGDWDSTKQAFDKVKAEVGEIDVLVNNAGITRDVVFRKMTREDWQAVIDTNLTSLFNVTKQVIDGMVERGWGRIINISSVNGQKGQFGQTNYSTAKAGIHGFTMSLAQEVATKGVTVNTVSPGYIGTDMVKAIRPDVLEKIVATIPVRRLGSPDEIGSIVAWLASEESGFSTGADFSLNGGLHMG”, the “soluble on expression in E. coli” value is “soluble”. On to “MGIFDFLSGQFIDVIHWTDDTRDTMVWRFEREGHEIKYGAKLTVREGQSAVFVHEGQLADVFTPGLYMLETNNMPILTTLNHWDHGFRSPFKSEIYFVNTTRFNNLKWGTKNPIMLRDPEFGPTRIRAFGTYSVRVTDPARFLSEIVGTDGEFTMDEISFQIRNIIVQEFSRVIAASGIPVLDMAANTADLGKLIAAQVALPLTEYGLEMPEFYIENISLPPAVEAALDKRTSMGLAGDLGKFTQYSAAEAMTAAATNPAGGGMAAGLGAGMGMAMAQQMAQPGPWGAAPASRHAAPPPPPVEHVWHVAVDGQTSGPFSKAKMGRMAAEGEITRDTYVWTPGQDGWKRAEDVRELAQLFTILPPPPPPPGALEHHHHHH”, for which the “soluble on expression in E. coli” value was “soluble”.

In the case of “MGSDKIHHHHHHMSDIIQFPNSSKKLYKDIKRAEQDQNYDLMYEYIVQYERQFELTEEIAMMKCRMLYETGSFLELREETIVLLKTGIQQYDALMIYYVKSLIGLGQYFEAVEVIHQIIDEVKDHKTRMALHPLKEFAKSKLIEDEKRLTQSLTDFDTLSMREQTHLILKLIDNGHFQFQETVLYILKSNTYSYNLISLMIEYLRFANCTQELTIEKYGMDVTFVPANLNGLEHTTLKEKVIPNVMETLNDGALHIAEEAHHIMNNHSIMIYPIDIETLFETNKWINAYECYFKNMLGLKCELQSIDAFNFIQQLDLNNNS”, the “soluble on expression in E. coli” value is reported as “not soluble”.

Take “MGSDKIHHHHHHMRSIADQYNVSTNSVSRRILALGKQTMPAYDGLPQTLCIDEFRSTSNQMSFITIDGQKHDIITILPGRQTNEIKQFFLNHYSLKNREQVTQVVMDLNAQYQTFIHYLFPNAKLIVDNFHLVQMALRALNQTRVQLMKKYHPNTPEYWVLKSYWRLYLMNYEALEKSQPQWFSHLRNRLTQEQLIWSGLNLSHEFENTYFTAHKLVEAFRSRDYAAFTATLDEVENVSPQLFTTIKTFIKNKKLIQNMTSSTLSNGPIEGVNRKIKQIKRTAYGYRNWKNFVFRIQIEFKIRLKKRNPVRK”: the “soluble on expression in E. coli” value is on record as “not soluble”. For the sequence “MPLSPILRQILQQLAAQLQFRPDMDVKTVREQFEKSSLILVKMANEPIHRVEDITIPGRGGPIRARVYRPRDGERLPAVVYYHGGGFVLGSVETHDHVCRRLANLSGAVVVSVDYRLAPEHKFPAAVEDAYDAAKWVADNYDKLGVDNGKIAVAGDSAGGNLAAVTAIMARDRGESFVKYQVLIYPAVNLTGSPTVSRVEYSGPEYVILTADLMAWFGRQYFSKPQDALSPYASPIFADLSNLPPALVITAEYDPLRDEGELYAHLLKTRGVRAVAVRYNGVIHGFVNFYPILEEGREAVSQIAASIKSMAVA”, the “soluble on expression in E. coli” value is given as “soluble”.
